US20240002497A1 (Merck Sharp & Dohme, published 2024)

What was measured:
[1] = target: T1, huNav1.7α+β1 (human, UniProt Q15858 1-1988; Q07699 19-218); assay: binding FACS, HEK293 cells
T1 construct: also called huNav1.7-beta1; HEKa/β1
Protocol: (§1) Binding of the ISVDs to cell-expressed Nav1.7α was detected via murine anti-Flag (Sigma, catalog #F1804). Briefly, cells were resuspended in FACS buffer (PBS, 10% FBS, NaN₃) and transferred to a 96-well V-bottom plate at 1×10^5 cells/well. Purified FLAG3-tagged ISVD was diluted in FACS buffer and added to the cells for 30 minutes at 4° C. […] Prior to the read-out, the samples were resuspended in 1 μg/mL propidium iodide (Sigma, catalog #P4170) to exclude dead cells. Between each step, the cells were centrifuged for 5 minutes at 200 grams and washed with 100 μL/well FACS buffer.
(§2) Crude periplasmic extracts containing ISVDs from phage display selections (as described above) were screened in FACS for binding to huNav1.7α but not to huNav1.5a. […] As used in Table 8, the drawings, and throughout the description, Navβ1, Navβ2, and Navβ3 are human homologs unless specifically identified otherwise.

[2] = target: T2, rhNav1.7α+β1-β2-β3 (rhesus monkey α subunit with human β …); assay: binding FACS, CHO FlpIn cells
T2 construct: P2A cleaves it into α, β1, β2, β3; also called rhNav1.7-beta1-beta2-beta3
Protocol: as §1, §2

[3] = target: T1, huNav1.7α+β1; assay: binding FACS, HEKa/β1 cells
Outline: (§3)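 Flow cytometry read-out of anti-Flag signal on propidium iodide-negative cells measured ISVD binding. Purified FLAG3-tagged ISVD, diluted in PBS with 10% FBS and NaN₃, was applied to the cells for 30 minutes at 4° C.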

[4] = target: T3, huNav1.3α (human, UniProt Q9NY46 1-2000); assay: binding FACS on stable huNav1.x paralog HEK293T cell lines
T3 construct: also called huNav1.3 (alpha subunit)
T3 sequence (Q9NY46 whole entry): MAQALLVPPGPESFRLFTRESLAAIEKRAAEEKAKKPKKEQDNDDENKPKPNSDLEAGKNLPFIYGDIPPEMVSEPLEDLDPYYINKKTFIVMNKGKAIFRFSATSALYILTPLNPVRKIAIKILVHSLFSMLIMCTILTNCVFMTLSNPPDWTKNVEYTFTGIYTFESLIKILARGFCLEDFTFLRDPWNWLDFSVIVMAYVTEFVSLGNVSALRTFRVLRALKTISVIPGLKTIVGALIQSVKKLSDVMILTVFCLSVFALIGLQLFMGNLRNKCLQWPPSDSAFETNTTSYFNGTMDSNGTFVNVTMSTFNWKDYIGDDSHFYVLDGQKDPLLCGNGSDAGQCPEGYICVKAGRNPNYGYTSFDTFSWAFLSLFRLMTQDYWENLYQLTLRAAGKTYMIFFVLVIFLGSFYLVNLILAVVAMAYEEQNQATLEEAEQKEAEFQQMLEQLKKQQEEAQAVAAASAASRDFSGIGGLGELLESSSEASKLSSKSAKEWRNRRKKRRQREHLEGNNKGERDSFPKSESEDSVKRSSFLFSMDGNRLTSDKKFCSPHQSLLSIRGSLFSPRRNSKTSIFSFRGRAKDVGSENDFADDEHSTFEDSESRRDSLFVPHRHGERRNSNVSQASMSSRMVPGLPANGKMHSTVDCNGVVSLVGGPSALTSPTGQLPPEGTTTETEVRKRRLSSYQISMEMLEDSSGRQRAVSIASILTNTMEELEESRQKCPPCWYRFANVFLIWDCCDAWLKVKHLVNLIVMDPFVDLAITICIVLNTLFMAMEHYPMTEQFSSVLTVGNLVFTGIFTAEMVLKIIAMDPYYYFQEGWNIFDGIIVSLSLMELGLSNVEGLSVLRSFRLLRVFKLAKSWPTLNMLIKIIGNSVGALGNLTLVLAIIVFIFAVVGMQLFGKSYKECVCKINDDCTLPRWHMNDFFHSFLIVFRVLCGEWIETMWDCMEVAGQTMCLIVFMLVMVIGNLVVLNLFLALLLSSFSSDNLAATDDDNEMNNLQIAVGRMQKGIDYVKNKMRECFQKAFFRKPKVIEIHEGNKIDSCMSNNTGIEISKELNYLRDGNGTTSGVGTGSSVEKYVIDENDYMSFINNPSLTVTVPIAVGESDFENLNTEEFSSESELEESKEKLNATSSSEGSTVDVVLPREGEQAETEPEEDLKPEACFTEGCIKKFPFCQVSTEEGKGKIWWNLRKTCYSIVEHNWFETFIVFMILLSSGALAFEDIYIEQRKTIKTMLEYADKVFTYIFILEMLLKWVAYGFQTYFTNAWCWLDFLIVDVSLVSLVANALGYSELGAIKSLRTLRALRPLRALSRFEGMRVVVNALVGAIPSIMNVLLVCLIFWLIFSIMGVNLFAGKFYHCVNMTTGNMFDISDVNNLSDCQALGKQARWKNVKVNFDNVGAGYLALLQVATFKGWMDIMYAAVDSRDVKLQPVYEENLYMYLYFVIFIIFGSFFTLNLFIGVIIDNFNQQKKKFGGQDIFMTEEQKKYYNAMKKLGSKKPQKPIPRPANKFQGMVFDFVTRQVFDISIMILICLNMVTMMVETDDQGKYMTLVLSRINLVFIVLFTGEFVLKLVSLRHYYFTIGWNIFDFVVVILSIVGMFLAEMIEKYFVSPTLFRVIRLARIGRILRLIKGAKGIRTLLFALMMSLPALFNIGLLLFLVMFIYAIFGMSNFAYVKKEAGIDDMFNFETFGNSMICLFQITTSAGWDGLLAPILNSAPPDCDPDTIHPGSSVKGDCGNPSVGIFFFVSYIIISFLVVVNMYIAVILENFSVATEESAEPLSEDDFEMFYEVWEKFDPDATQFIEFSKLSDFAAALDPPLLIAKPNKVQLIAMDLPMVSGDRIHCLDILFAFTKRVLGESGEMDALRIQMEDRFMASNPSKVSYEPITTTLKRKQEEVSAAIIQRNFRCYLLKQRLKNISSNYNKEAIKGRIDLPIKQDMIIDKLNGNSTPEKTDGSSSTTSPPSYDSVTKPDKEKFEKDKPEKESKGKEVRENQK

[5] = target: huNav1.1α (human, UniProt P35498 1-2009); assay: as above
[6] = target: T4, huNav1.4α (human, UniProt P35499 1-1836); assay: as above
T4 construct: also called huNav1.4 (alpha subunit)

[7] = target: T5, huNav1.8α (human, UniProt Q9Y5Y9 1-1956); assay: as above
T5 construct: also called huNav1.8 (alpha subunit)
T5 sequence (Q9Y5Y9 whole entry): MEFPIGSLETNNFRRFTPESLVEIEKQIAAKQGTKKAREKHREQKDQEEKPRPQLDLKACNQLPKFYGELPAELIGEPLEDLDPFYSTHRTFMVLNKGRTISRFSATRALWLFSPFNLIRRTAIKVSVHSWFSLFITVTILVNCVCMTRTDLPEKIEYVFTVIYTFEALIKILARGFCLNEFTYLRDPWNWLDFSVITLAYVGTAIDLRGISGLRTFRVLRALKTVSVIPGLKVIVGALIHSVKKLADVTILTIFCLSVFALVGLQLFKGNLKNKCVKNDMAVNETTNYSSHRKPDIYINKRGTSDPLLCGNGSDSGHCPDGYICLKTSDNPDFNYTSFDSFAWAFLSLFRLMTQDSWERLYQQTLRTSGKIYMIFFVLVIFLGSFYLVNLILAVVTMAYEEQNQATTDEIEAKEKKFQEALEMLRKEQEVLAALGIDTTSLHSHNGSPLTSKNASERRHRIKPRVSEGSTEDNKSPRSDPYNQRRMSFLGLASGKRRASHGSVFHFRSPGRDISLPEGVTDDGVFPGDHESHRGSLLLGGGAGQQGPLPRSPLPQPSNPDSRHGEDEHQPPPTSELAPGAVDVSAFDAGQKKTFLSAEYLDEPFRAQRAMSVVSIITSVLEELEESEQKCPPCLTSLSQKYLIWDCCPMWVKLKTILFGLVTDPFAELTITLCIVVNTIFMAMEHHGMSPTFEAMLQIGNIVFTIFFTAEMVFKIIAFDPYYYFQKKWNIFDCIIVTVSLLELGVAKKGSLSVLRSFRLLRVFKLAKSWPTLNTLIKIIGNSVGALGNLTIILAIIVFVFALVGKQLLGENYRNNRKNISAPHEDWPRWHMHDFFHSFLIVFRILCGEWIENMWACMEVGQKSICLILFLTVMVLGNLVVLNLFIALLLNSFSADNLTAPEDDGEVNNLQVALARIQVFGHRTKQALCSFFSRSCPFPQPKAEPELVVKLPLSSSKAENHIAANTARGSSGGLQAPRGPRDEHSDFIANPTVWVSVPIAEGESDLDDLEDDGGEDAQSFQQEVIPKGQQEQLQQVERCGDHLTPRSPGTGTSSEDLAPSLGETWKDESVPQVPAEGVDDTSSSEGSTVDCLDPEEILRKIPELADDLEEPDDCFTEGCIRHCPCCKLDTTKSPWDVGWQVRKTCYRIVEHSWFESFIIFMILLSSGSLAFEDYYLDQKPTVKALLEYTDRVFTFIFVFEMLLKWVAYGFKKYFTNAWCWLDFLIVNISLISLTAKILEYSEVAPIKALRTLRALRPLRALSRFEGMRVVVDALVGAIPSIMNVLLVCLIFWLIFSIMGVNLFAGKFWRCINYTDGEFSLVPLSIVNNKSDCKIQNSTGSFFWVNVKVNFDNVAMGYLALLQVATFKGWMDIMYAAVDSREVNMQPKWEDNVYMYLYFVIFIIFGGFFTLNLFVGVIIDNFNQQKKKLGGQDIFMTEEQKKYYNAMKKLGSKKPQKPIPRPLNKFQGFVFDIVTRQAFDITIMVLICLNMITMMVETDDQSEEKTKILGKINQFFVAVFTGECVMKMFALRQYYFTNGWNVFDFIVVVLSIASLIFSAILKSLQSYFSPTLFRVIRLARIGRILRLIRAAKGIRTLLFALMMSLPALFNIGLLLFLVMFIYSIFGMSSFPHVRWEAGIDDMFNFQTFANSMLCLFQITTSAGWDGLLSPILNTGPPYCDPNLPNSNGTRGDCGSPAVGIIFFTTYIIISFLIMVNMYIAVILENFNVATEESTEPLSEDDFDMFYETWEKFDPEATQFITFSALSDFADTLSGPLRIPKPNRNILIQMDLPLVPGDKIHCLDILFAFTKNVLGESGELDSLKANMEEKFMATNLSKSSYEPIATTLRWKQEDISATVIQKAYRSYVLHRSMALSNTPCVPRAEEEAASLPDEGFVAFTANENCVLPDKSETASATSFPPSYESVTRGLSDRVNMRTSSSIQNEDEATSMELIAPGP

[8] = target: T6, huNav1.6α (human, UniProt Q9UQD0 1-1980); assay: as above
T6 construct: also called huNav1.6 (alpha subunit)

[9] = target: T7, huNav1.2α (human, UniProt Q99250 1-2005); assay: as above
T7 construct: also called huNav1.2 (alpha subunit)

[10] = target: T8, huNav1.5α (human, UniProt Q14524 1-2016); assay: as above
T8 construct: also called huNav1.5 (alpha subunit)

[11] = target: T9, huNav1.5α+β1-β2-β3 (human, UniProt Q14524 1-2016; A5A6L6 19-218; O60939 30-215; Q2KI11 23-215); assay: binding FACS, HEK FlpIn cells
T9 construct: in the cell P2A cleaves it into α, β1, β2, β3; also called huNav1.5-beta1-beta2-beta3
Protocol: as §1, §2

[12] = target: T10, huNav157chimera14+β1-β2-β3 (human, UniProt Q07699 19-218; O60939 30-215; Q9NY72 23-215); assay: binding FACS, HEK FlpIn cells
T10 construct: HEK FlpIn line; also called huNav157 chimera 14-beta1-beta2-beta3; Nav157ch14-β1-β2-β3
Protocol: as §1, §2

[13] = target: T11, huNav1.7α+β1-β2-β3 (human, UniProt Q15858 1-1988; Q07699 19-218; O60939 30-215; Q9NY72 23-215); assay: binding FACS, HEK FlpIn cells
T11 construct: 5N11S variant; also called huNav1.7-beta1-beta2-beta3; huNav1.7α+Navβ1-Navβ2-Navβ3
Protocol: as §1, §2

[14] = target: T11, huNav1.7α+β1-β2-β3; assay: binding FACS, CHO FlpIn cells
Outline: as §3

[15] = target: T12, huNav1.7α (human, UniProt Q15858 1-1988); assay: binding FACS, HEKa cells
T12 construct: HEK cells expressing the α subunit alone; also called HEKa; HEK huNav1.7α
Outline: as §3

[16] = target: huNav1.7α + β1 (human); assay: cell-based or functional assay

EC50 [1] | binding result [2] | EC50 [3] | binding result [4] | binding result [5] | binding result [6] | binding result [7] | binding result [8] | binding result [9] | EC50 [12] | EC50 [13] | EC50 [14] | EC50 [15] | Qpatch IC50 [16] | Binder | binding result [10] | binding result [11]
1.2 nM | no binding | 1.7 nM | no binding | no binding | no binding | no binding | no binding | no binding | 3.6 nM | 3.1 nM | 4.7 nM | 2.7 nM | – | F0103387G05 (parental)-FLAG-HIS6 (VHH) VHH: EVQLVESGGGLVQAGGSLRLSCDASGRILRIGYMRWHRQGAGKQREFVARITDDSATDYADSVKGRFTISRDNAKNTVYLQMNNLNPEDTAVYYCEALVTASVRGGSIHSGTYWGRGTLVTVSS | no binding | no binding
– | – | – | – | – | – | – | – | – | – | – | – | – | 1 nM | F0103362B08 (parental)-FLAG-HIS6 (VHH) VHH: EVQLVESGGGLVQAGGSLRLSCAASVRPFSTSAMGWFRQAPEKEREAVAGILWNGIVTYYADSVKGRFTISRDNAKNEVYLQMNKLKPEDTAVYYCALDRDYGGRSFSAYEYEYWGQGTLVTVSS | – | –
– | – | – | – | – | – | – | – | – | – | – | – | – | 38 nM | F0103454D07 (parental)-FLAG-HIS6 (VHH) VHH: EVQLVESGGGLVQPGGSLRLSCVASGGIININYIAWYRQTPGKQRDLVARISSDDTIKYGDSVKGRFAMSRDKVKNMVHLQMNSLTTEDTGVYVCSALITPWTGDTRTYWGRGTLVTVSS | – | –
